# Results from article PMC11065875.
# Test system: H-24 (His-ELP) (synthetic; E. coli BL21 expressed)
# Experiment: coacervate partitioning, fluorimetry
# Settings: EMSA in 2.5% agarose, 30 min incubation, 0.5 uM ssDNA1, fusions in 1x PBS (or 50% artificial fluids) at RT, His-ELPs at RT in 37 mM citric acid/126 mM Na2HPO4 …; for binding signal (% in coacervate): 60 C (LLPS 1)
sequence,measurement,setting,value
GGGTTCCTTGCTAGCCAGAGAGCTCCCGGGCTCGACCTGGTCTAACAAGAGAGACC [ATTO488-ssDNA1],binding signal (% in coacervate),"pH 6.5, artificial nasal swab fluid",80
same,binding signal (% in coacervate),"pH 6.5, artificial saliva",70
same,binding signal (% in coacervate),"pH 6.5, buffer",60
same,binding signal (% in protein-poor supernatant),"pH 8, 300 mM NaCl, 30 C (LLPS 2)",> 90
